Experimental data from publication PMC7085222, “TBC1D25 Regulates Cardiac Remodeling Through TAK1 Signaling Pathway” (International Journal of Biological Sciences, 2020).

T1: Flag-tagged TBC1 Domain Family Member 25 (TBC1D25) (UniProt Q3MII6-1 1-688)
T1 construct: Vector pcDNA5-flag or pHAGE-3xflag; The reverse primer carries the stop codon, so the tag is probably N-terminal; also called Flag-TBC1D25; OATL1; source: HEK-293T, transfected, in lysate (co-IP); immunopurified and eluted with FLAG peptide (GST pull-down)
T1 sequence (looked up): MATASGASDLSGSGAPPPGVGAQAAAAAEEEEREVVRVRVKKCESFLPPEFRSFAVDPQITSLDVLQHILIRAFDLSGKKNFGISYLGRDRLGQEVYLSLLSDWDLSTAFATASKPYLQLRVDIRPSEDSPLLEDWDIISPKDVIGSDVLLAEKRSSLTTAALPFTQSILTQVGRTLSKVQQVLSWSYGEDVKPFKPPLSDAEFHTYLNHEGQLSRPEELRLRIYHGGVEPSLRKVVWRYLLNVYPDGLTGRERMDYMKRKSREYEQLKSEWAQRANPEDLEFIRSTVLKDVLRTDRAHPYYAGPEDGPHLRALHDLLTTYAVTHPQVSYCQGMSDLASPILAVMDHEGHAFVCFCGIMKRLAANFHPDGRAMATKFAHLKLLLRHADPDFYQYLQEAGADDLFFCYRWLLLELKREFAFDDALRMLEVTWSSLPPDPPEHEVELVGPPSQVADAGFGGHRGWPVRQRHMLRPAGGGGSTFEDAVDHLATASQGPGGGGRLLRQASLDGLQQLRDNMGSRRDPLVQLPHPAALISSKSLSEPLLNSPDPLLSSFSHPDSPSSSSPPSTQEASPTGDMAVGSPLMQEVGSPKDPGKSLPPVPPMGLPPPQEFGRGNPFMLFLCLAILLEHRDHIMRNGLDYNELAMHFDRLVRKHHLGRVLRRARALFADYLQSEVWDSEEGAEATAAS

T2: GST-HA-TBC1D25 (UniProt Q3MII6-1 1-688)
T2 construct: also called OATL1
T2 sequence (looked up): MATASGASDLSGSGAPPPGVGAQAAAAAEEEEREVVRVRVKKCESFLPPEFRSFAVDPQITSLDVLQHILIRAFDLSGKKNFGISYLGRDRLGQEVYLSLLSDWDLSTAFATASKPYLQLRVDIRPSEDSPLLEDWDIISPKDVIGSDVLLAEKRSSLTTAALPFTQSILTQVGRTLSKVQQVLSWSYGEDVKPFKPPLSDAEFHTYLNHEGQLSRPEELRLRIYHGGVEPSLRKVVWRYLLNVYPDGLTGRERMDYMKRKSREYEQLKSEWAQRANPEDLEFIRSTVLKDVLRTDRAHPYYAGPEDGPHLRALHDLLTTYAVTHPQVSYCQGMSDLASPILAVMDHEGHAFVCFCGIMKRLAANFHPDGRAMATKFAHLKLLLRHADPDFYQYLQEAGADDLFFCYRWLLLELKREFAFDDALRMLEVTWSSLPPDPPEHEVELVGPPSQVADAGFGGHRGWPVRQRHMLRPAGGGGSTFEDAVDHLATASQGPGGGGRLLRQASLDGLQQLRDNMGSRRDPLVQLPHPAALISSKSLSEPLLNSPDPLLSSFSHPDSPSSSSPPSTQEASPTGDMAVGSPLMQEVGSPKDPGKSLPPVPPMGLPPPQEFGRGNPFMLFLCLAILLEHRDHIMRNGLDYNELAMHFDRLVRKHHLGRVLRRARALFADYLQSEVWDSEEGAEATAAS


Experiments:
[1] = molecular target: T1, Flag-tagged TBC1 Domain Family Member …; test: pull-down; GST-HA-tagged protein from E. coli extracts held on glutathione-sepharose 4B beads, washed with PBS, incubated 4 h at 4 C with immunopurified Flag-tagged protein; washed with NaCl wash buffer; Western blot; GST tag as negative control; settings: both partners purified
GST-HA-TBC1D25 = molecular target: T2, GST-HA-TBC1D25; test: as above; settings: both partners purified

| binding result [1] | binding result (GST-HA-TBC1D25) | Binder |
| --- | --- | --- |
| binds |  | GST-HA-TAK1 (enzyme, UniProt O43318-2 1-579, looked up, also called pGEX-4T-1-GST-HA-TAK1; MAP3K7) MSTASAASSSSSSSAGEMIEAPSQVLNFEEIDYKEIEVEEVVGRGAFGVVCKAKWRAKDVAIKQIESESERKAFIVELRQLSRVNHPNIVKLYGACLNPVCLVMEYAEGGSLYNVLHGAEPLPYYTAAHAMSWCLQCSQGVAYLHSMQPKALIHRDLKPPNLLLVAGGTVLKICDFGTACDIQTHMTNNKGSAAWMAPEVFEGSNYSEKCDVFSWGIILWEVITRRKPFDEIGGPAFRIMWAVHNGTRPPLIKNLPKPIESLMTRCWSKDPSQRPSMEEIVKIMTHLMRYFPGADEPLQYPCQYSDEGQSNSATSTGSFMDIASTNTSNKSDTNMEQVPATNDTIKRLESKLLKNQAKQQSESGRLSLGASRGSSVESLPPTSEGKRMSADMSEIEARIAATTGNGQPRRRSIQDLTVTGTEPGQVSSRSSSPSVRMITTSGPTSEKPTRSHPWTPDDSTDTNGSDNSIPMAYLTLDHQLQPLAPCPNSKESMAVFEQHCKMAQEYMKVQTEIALLLQRKQELVAELDQDEKDQQNTSRLVQEHKKLLDENKSLSTYYQQCKKQLEVIRSQQQKRQGTS |
|  | binds | Flag-TAK1, immunopurified (enzyme, UniProt O43318-2 1-579, looked up, Probably expressed in HEK-293T cells like the other Flag constructs; also called MAP3K7; source: immunopurified, eluted with FLAG peptide) MSTASAASSSSSSSAGEMIEAPSQVLNFEEIDYKEIEVEEVVGRGAFGVVCKAKWRAKDVAIKQIESESERKAFIVELRQLSRVNHPNIVKLYGACLNPVCLVMEYAEGGSLYNVLHGAEPLPYYTAAHAMSWCLQCSQGVAYLHSMQPKALIHRDLKPPNLLLVAGGTVLKICDFGTACDIQTHMTNNKGSAAWMAPEVFEGSNYSEKCDVFSWGIILWEVITRRKPFDEIGGPAFRIMWAVHNGTRPPLIKNLPKPIESLMTRCWSKDPSQRPSMEEIVKIMTHLMRYFPGADEPLQYPCQYSDEGQSNSATSTGSFMDIASTNTSNKSDTNMEQVPATNDTIKRLESKLLKNQAKQQSESGRLSLGASRGSSVESLPPTSEGKRMSADMSEIEARIAATTGNGQPRRRSIQDLTVTGTEPGQVSSRSSSPSVRMITTSGPTSEKPTRSHPWTPDDSTDTNGSDNSIPMAYLTLDHQLQPLAPCPNSKESMAVFEQHCKMAQEYMKVQTEIALLLQRKQELVAELDQDEKDQQNTSRLVQEHKKLLDENKSLSTYYQQCKKQLEVIRSQQQKRQGTS |
